Experiment [1] addresses T1, receptor-binding domain (RBD) of the SARS-COV-2 spike (S) protein (SARS-COV-2, UniProt P0DTC2 319-541). Put plainly: SPR kinetic. A general note: In SPR one partner is held on a chip, and binding of the other changes the refractive index at the surface.
The target of experiment [2] is T1, receptor-binding domain (RBD) of the …. Put plainly: SPR equilibrium.
Experiment [3] has the same target. Put plainly: SPR equilibrium; affinity measurement note: Saturation not reached.
The target is the same in experiment [4]. The experiment is described as follows: SPR kinetic. The source holds these as a separate data set.
For experiment [5] the target is unchanged. Put plainly: SPR equilibrium. The source holds these as a separate data set.
The target is the same in experiment [6]. The experiment is described as follows: On-yeast EC50.
Experiment [7] has the same target. Put plainly: SPR equilibrium. The source holds these as a separate data set.
Experiment [8] shares this target. The experiment is described as follows: SPR kinetic. This is another data set of the same source.
Experiment [9] shares this target. Put plainly: monovalent affinity, assay not named.

The values below come from patent US20240182911A1 (University of California, published 2024).

Positions count from the first letter of the chain named. Where two headings read alike, the source gives them in different places.

As usually defined, the Kd is the free concentration of one partner at which half of the binding sites on the other are occupied at equilibrium, for simple one-to-one binding. Read a high Kd as a looser complex. As usually defined, the koff is the rate constant with which the complex falls apart. By kon is commonly meant the rate constant with which the complex forms. As usually defined, the EC50 is the concentration that produces a half-maximal response.

B1: RBD1i1 (VHH)
VHH: QVQLQESGGGLVQAGGSLRLSCAASGTISYENFMGWYRQAPGKERKLVAGINDGTNTYYADSVKGRFTISRDNAKNTVYLQMNSLKPEDTAVYYCAVIGASVLGHAYWGQGTQVTVSS
In experiment [1], B1 registered a dissociation constant Kd of 48.1 nM, an off-rate (koff) of 0.0023 s⁻¹ and a kon of 47700 M⁻¹ s⁻¹.

B2: RBD1 (VHH)
VHH: B1 VHH with K46E, A100T
With B2, in experiment [1], binding was put at a Kd of 1400 nM, the koff is 0.0221 s⁻¹ and the on-rate (kon) was found to be 15800 M⁻¹ s⁻¹.

B3: RBD1i13 (VHH)
VHH: B1 VHH with E44G, K86E
Regarding B3, in experiment [1], the Kd was 32.2 nM, the koff is 0.00216 s⁻¹ and the kon was 67200 M⁻¹ s⁻¹.

B4: RBD3i2 (VHH)
VHH: QAQLQESGGGLVQAGGSLRLSCAASGNISDFRFMGWYRQAPGKERELVAAIGRGSNTRYADSVKGRFTISRDNAKNTVYLQMNSLKPEDTAVYYCAARNATYPYYVYWGQGTQVTVSS
The molecule B4 came in with a Kd in experiment [2] of 128 nM.

B5: RBD3i17 (VHH)
VHH: B4 VHH with Y59C
B5: in [2], binding was put at a Kd of 230 nM.

B6: RBD3 (VHH)
VHH: B4 VHH with A2V, R58Y
For the molecule B6, the Kd in [3] stood at 6000 nM.

B7: RBD6i10 (VHH)
VHH: QVQLQESGGGLVQAGGSLRLNCAASGSISTTYLMGWYRQAPGKERKFVATINRGGSTYYAVSVKGRFTISRDNAKNTVYLQMNSLKPEDTAVYYCAVGWPDPDYGLAYHRYWGQGTQVTVNS
In experiment [4], B7 displayed a Kd of 597 nM, a koff of 0.00568 s⁻¹ and a kon of 9500 M⁻¹ s⁻¹.

B8: RBD6i13 (VHH)
VHH: B7 VHH with D103G
B8 showed a dissociation constant Kd in experiment [5] of 558 nM.

B9: RBD6 (VHH)
VHH: B7 VHH with N21S, K46E, V61D, N121S
Take B9: in [1], the dissociation constant (Kd) was 990 nM, the off-rate constant (koff) turned out to be 0.00892 s⁻¹ and the on-rate (kon) came out at 9010 M⁻¹ s⁻¹.

B10: RBD6id (VHH)
VHH: B7 VHH with S25N, K46E, V61I, N121S
With B10, in [4], the dissociation constant (Kd) is 263 nM, the dissociation rate constant (koff) is 0.00271 s⁻¹ and the kon was 10300 M⁻¹ s⁻¹.

B11: RBD9 (VHH)
VHH: QVQLQESGGGLVQAGGSLRLSCAASGYIFYSRRMGWYRQAPGKEREFVATIGHGTSTYYADSVKGRFTISRDNAKNTVYLQMNSLKPEDTAVYYCAALPRPHGAGTADARYNLWYWGQGTQVTVSS
In turn, B11 gave an EC50 in [6] of 131 nM.

B12: RBD9i10 (VHH)
VHH: B11 VHH with T55A, D61G, N83D
Molecule B12 displayed a 50% effective concentration (EC50) in experiment [6] of 15.2 nM. This EC50 lies about 8.6-fold lower than the previous one.

B13: RBD8 (VHH)
VHH: QVQLQESGGGLVQAGGSLRLSCAASGTIFGGPWMGWYRQAPGKEREFVAAIARGGNTNYADSVKGRFTISRDNAKNTVYLQMNSLKPEDTAVYYCAARDAVYPYLKYWGQGTQVTVSS
B13: in experiment [6], the EC50 is 80.8 nM.

B14: RBD8i1 (VHH)
VHH: B13 VHH with F29S
B14 came in with an EC50 in experiment [6] of 35.4 nM.

B15: RBD11 (VHH)
VHH: QVQLQESGGGLVQAGGSLRLSCAASGNIFAKVWMGWYRQAPGKEREFVASIANGATTYYADSVKGRFTISRDNAKNTVYLQMNSLKPEDTAVYYCAARNWSGLGHFYWGQGTQVTVSS
Molecule B15 gave a Kd in experiment [7] of 2420 nM. In other words, the single-digit micromolar range.

B16: RBD11i12 (VHH)
VHH: B15 VHH with E44G, H105Y, G109S
In turn, B16 had an equilibrium dissociation constant (Kd) in experiment [7] of 316 nM.

B17: RBD7i12 (VHH)
VHH: QVQLQESGGGLVQAGGSLRLSCAASGYISGAYYMGWYRQAPGKEREFVAGIGGGSTNYADSVKGRFTISRDNAKNTVYLQMNSLKPEDTAVYYCAVYQSVAYYCRGYFSYWGQGTQVTVSS
B17 showed a dissociation constant Kd in [5] of 2590 nM.

B18: RBD7 (VHH)
VHH: B17 VHH with C104Y
Regarding B18, the Kd in experiment [5] turned out to be 2210 nM.

B19: RBD7i13 (VHH)
VHH: B17 VHH with E46K
B19 came in with a Kd in experiment [5] of 659 nM.

B20: RBD10i10 (VHH)
VHH: QVQLQESGGGLVQAGGSLRLSCAASGTIFQVGSMGWYRQAPGKGRKFVATIADGGSTNYAGSVKGRFTISRDNAKNTVYLQMNSLKPEDTAVYYCAALGQVSEYNSASYEWTYPYWGQGTQVTVSS
In experiment [8], B20 gave a Kd of 2.14 nM and an association rate constant (kon) of 154000 M⁻¹ s⁻¹.

B21: RBD10i14 (VHH)
VHH: B20 VHH with M34V, G55S
Regarding B21, in [9], the Kd amounted to 0.72 nM. In experiment [8], this molecule returned a koff of 0.000118 s⁻¹ and an on-rate (kon) of 167000 M⁻¹ s⁻¹.

B22: RBD10 (VHH)
VHH: B20 VHH with G44E, K46E, G55S, G61D
In the case of B22, in [8], the Kd came out at 417 nM, the koff amounted to 0.00552 s⁻¹ and the on-rate constant (kon) is 13200 M⁻¹ s⁻¹.
